According to patent US20180222975A1 (ELEVEN BIOTHERAPEUTICS, published 2018):
Values belong to the binder of their own block, whether it stands above or below them.

Columns and labels:
rabbit IL-6 = target: T1, rabbit IL-6 (rabbit, UniProt Q9MZR1 27-241, limits assumed); experiment: monovalent affinity
T1 sequence (looked up): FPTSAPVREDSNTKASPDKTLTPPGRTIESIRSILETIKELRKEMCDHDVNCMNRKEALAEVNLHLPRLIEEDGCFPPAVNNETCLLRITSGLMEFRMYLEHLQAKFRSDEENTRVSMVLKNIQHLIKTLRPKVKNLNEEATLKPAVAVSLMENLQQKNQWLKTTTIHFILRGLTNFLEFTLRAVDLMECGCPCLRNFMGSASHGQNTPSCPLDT

[1] = target: African green monkey IL-6 (African green monkey); experiment: monovalent affinity
dog IL-6 = target: T2, dog IL-6 (dog, UniProt P41323 21-207, limits assumed); experiment: monovalent affinity
T2 construct: also called canine IL-6
T2 sequence (looked up): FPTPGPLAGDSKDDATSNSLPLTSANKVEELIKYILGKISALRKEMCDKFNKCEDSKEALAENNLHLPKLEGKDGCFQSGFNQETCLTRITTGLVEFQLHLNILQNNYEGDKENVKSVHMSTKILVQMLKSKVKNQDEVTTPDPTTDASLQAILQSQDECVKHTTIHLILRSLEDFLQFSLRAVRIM

rat IL-6 = target: T3, rat IL-6 (rat, UniProt P20607 25-211); experiment: monovalent affinity
T3 construct: also called rodent IL-6
T3 sequence (looked up): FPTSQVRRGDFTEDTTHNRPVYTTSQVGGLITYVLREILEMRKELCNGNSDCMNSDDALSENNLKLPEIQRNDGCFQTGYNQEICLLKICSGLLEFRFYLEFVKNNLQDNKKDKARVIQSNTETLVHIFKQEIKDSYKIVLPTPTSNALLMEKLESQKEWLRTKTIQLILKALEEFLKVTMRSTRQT

mouse IL-6 = target: T4, mouse IL-6 (mouse, UniProt P08505 25-211); experiment: monovalent affinity
T4 construct: also called rodent IL-6
T4 sequence (looked up): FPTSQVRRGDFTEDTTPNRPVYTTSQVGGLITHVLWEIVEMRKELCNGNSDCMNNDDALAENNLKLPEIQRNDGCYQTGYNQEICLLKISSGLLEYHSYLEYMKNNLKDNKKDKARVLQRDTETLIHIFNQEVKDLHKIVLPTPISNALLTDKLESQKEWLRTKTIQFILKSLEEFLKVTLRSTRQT

human IL-6 [2] = target: T5, human IL-6 (human, UniProt P05231 30-212); experiment: affinity tested using the yeast system; original humanized h64, before affinity maturation; yeast system
T5 construct: also called IL-6 (R&D Systems, cat# 206-IL/CF); biotinylated human IL-6

human IL-6 [3] = target: T5, human IL-6; experiment: ELISA, hybridoma supernatant on plates coated with human IL-6
Description: Hybridoma supernatants were screened for IL-6 binding and antagonism. For the binding ELISA, Costar 9018 plates were coated with 1 μg/mL human IL-6 in PBS overnight at 4° C. Wells were blocked with PBS containing 2% BSA, washed, and then incubated with 50 μL of each hybridoma supernatant diluted 1:2 with PBS containing 2% BSA. After 60 minutes, wells were washed three times with 300 μl PBS containing 0.1% Tween-20. Anti-mouse-HRP diluted 1:3000 in PBS-BSA was then added to each well and incubated for 30 minutes. Wells were washed as above then 3,3′,5,5′-tetramethylbenzidine (TMB) substrate was added and the signal measured at 450 and 550 nm. For antagonism studies, HEK-Blue™-IL6 reporter cells (InvivoGen. San Diego, Calif.) were incubated with increasing concentrations of human IL-6 in the presence of 1:10 diluted hybridoma supernatant. After 20-24 hours, 20 μl of supernatant was mixed with 180 μl QuantiBlue™ (InvivoGen) and the absorbance measured at 655 nm.

human IL-6 [4] = target: T5, human IL-6; experiment: ELISA, blocking of IL-6/IL-6Rα complex binding to gp130

- Kd (rabbit IL-6): > 1000 nM
- Kd [1]: 0.28 nM
- Kd (dog IL-6): > 1000 nM
- Kd (rat IL-6): > 1000 nM
- Kd (mouse IL-6): > 1000 nM
B1: 018 Fab (Fab, V domains shown)
VH: QVQLVQSGAEVKKPGSSVKVSCKASGYALSNYLIEWVRQAPGQGLEWMGVITPGSGTINYAQKFQGRVTITADESTSTAYMELSSLRSEDTAVYYCARSRWDPLYYYALEYWGQGTTVTVSS
VL: DIVMTQSPDSLAVSLGERATINCRASESVDNYGIPFMNWYQQKPGQPPKLLIYAASNRGSGVPDRFSGSGSGTDFTLTISSLQAEDVAVYYCQQSEEVPLTFGQGTKLEIKR
notes: Fab with CK and IgG1 CH1 domains; also called Fab fragment of the h64-1,4 humanized antibody

- Kd (human IL-6 [2]): 0.343 nM
B2: h64 IgG (antibody, V domains shown)
VH: QVQLVQSGAEVKKPGSSVKVSCKASGYAFSNYLIEWVRQAPGQGLEWMGVITPGSGTINYAQKFQGRVTITADESTSTAYMELSSLRSEDTAVYYCARSRWDPLYYYALEYWGQGTTVTVSS
VL: DIVMTQSPDSLAVSLGERATINCRASESVDNYGISFMNWYQQKPGQPPKLLIYAASNQGSGVPDRFSGSGSGTDFTLTISSLQAEDVAVYYCQQSKEVPLTFGQGTKLEIK
notes: also called original h64 antibody; original humanized molecule

- binding result (human IL-6 [3]): binds
B3: murine 64 antibody (antibody, V domains shown)
VH: QVQLQQSGAELVRPGTSVKVSCKASGYAFSNYLIEWVKQRPGQGLEWIGVITPGSGTINYNEKFKGKAVLTADKSSSTVYMQLSSLTSDDSAVYFCAKSRWDPLYYYALEYWGQGTSVTVSS
VL: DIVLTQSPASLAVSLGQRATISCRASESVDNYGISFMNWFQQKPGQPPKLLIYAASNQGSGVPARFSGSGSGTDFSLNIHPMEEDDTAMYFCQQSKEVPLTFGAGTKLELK
notes: Murine monoclonal; also called hybridoma 64; m64

- binding result (human IL-6 [4]): binds
B4: chimeric murine 64 antibody (antibody, V domains shown)
VH: QVQLQQSGAELVRPGTSVKVSCKASGYAFSNYLIEWVKQRPGQGLEWIGVITPGSGTINYNEKFKGKAVLTADKSSSTVYMQLSSLTSDDSAVYFCAKSRWDPLYYYALEYWGQGTSVTVSS
VL: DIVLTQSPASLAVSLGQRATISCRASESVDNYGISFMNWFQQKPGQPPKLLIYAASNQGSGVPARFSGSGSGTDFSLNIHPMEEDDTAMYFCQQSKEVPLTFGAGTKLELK
notes: constant regions not described
